Measured values from article PMC3513585.

biological target: denatured human type I collagen (gelatin) (human) (UniProt P02452); test: ELISA
Sequence (P02452 162-1218, chain 1 of 2): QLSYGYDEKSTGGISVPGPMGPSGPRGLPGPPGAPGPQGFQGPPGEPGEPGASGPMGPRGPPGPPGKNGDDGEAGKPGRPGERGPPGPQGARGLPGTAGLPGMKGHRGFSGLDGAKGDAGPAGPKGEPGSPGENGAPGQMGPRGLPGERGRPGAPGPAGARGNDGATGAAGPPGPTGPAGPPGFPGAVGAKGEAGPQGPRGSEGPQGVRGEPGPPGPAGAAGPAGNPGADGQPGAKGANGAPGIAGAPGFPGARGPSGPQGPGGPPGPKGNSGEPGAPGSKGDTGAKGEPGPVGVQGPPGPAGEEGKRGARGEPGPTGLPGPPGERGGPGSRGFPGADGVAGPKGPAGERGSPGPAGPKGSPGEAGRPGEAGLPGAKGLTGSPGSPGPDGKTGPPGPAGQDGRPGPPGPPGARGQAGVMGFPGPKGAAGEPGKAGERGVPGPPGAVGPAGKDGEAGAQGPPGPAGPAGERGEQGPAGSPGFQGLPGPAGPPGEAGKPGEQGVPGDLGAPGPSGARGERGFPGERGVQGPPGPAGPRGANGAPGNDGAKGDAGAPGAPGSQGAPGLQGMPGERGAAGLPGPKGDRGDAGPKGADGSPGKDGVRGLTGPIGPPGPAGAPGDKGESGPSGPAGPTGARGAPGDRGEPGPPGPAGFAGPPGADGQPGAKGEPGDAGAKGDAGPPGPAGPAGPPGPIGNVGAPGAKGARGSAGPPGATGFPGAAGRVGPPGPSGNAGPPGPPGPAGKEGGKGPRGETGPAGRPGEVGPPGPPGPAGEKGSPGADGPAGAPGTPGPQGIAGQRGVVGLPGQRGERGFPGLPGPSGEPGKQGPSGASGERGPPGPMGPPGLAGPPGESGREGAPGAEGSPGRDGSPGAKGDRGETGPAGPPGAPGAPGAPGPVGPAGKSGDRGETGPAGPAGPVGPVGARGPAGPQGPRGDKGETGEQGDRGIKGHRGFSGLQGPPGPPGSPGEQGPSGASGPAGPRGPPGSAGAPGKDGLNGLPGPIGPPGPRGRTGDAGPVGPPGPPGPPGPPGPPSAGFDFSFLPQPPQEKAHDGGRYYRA
Sequence (P08123 80-1119, chain 2 of 2, further chain): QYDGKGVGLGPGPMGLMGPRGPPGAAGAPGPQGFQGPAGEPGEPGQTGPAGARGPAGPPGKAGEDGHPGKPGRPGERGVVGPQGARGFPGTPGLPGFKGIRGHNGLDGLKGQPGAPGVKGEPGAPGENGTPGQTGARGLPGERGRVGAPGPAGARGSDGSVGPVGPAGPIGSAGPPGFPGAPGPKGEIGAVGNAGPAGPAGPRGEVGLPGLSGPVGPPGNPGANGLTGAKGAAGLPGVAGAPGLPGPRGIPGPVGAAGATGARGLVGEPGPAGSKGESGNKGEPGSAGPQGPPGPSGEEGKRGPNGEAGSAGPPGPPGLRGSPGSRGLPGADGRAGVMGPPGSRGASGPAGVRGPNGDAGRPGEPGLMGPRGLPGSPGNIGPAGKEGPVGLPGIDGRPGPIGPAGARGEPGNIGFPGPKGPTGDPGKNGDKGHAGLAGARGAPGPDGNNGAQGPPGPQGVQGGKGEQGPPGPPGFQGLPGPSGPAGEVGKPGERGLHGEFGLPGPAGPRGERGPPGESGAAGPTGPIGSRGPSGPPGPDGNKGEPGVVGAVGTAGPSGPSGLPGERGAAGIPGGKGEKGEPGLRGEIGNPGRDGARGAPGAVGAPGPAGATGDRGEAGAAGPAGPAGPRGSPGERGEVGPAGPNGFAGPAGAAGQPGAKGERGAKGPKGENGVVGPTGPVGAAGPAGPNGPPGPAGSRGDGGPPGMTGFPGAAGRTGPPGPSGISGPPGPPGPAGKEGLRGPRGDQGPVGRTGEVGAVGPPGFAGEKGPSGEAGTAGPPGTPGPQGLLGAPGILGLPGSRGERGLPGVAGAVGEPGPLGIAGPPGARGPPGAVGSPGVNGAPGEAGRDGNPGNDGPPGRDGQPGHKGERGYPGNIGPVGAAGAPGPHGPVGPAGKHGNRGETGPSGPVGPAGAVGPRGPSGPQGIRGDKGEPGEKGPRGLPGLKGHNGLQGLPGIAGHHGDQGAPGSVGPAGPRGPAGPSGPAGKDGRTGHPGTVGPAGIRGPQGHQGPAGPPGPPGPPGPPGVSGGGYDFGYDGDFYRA

**Q.** How did the Kd turn out when “MMP-2 F297A (variant of MMP-2Δpro, CBD module 2) (from UniProt P08253 30-660) (enzyme)” was run?
**A.** 2.8 nM

**Q.** “MMP-2Δpro (constitutively active matrix metalloproteinase-2 without the prodomain; wild-type) (from UniProt P08253 30-660) (enzyme)” was tested. Which Kd did it give?
**A.** 1.03 nM

**Q.** Which Kd does the source give for “MMP-2 R368A (variant of MMP-2Δpro, CBD module 3) (from UniProt P08253 30-660) (enzyme)” here?
**A.** 3.56 nM

**Q.** Which Kd does the source give for “MMP-2 F297A/R368A (variant of MMP-2Δpro, CBD modules 2+3) (from UniProt P08253 30-660) (enzyme)” here?
**A.** 37.6 nM

**Q.** With “MMP-2 R252A/R368A (variant of MMP-2Δpro, CBD modules 1+3) (from UniProt P08253 30-660) (enzyme)” as the substance, how does the Kd read?
**A.** 7.49 nM

**Q.** How did the Kd turn out when “MMP-2 R252A/F297A (variant of MMP-2Δpro, CBD modules 1+2) (from UniProt P08253 30-660) (enzyme)” was run?
**A.** 5.84 nM

**Q.** How did the Kd turn out when “MMP-2 R252A (variant of MMP-2Δpro, CBD module 1) (from UniProt P08253 30-660) (enzyme)” was run?
**A.** 2.58 nM
